For two molecules, Kd results are on record in PMC11931385, “Structural and functional analysis of cancer-associated missense variants in the retinoblastoma protein pocket domain” (The Journal of Biological Chemistry, 2025).

What all share (experiment): fluorescence polarisation; 25 °C; unlabeled Rb^P titrated against 1.5 nM TMR-E2F1^TD or 7.5 nM TMR-E7^LxCxE; 25 mM Tris pH 8.0, 200 mM NaCl, 1 mM DTT, 0.1% Tween-20; 2 min incubation; quadratic fit; apparent Kd for the variants, Kd for WT
Holding throughout (conditions): both partners purified

In one experiment the target is T1, Rb^P R621S (human, UniProt P06400 380-788, R621S).
T1 construct: also called variant 44
T1 sequence (looked up): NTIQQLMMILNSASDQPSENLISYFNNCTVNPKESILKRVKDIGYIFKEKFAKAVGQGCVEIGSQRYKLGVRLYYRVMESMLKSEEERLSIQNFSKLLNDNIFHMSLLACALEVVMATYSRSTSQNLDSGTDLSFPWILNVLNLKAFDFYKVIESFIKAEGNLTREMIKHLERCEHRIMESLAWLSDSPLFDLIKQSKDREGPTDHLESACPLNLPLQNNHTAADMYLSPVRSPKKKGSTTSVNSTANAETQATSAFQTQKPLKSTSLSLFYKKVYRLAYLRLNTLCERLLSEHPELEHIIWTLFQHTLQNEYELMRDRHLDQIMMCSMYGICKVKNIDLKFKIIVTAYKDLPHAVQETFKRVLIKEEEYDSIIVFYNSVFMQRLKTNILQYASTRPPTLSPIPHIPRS

The next experiment addresses T2, Rb^P R763T (human, UniProt P06400 380-788, R763T).
T2 construct: also called variant 75
T2 sequence (looked up): T1 sequence (looked up) with S242R, R384T

The next experiment has as its target T3, Rb^P Y606C (human, UniProt P06400 380-788, Y606C).
T3 construct: also called variant 37
T3 sequence (looked up): T1 sequence (looked up) with Y227C, S242R

The next experiment has as its target T4, Rb^P L572I (human, UniProt P06400 380-788, L572I).
T4 construct: also called variant 31
T4 sequence (looked up): T1 sequence (looked up) with L193I, S242R

For another experiment, the target named is T5, Rb^P R451S (human, UniProt P06400 380-788, R451S).
T5 construct: also called variant 7
T5 sequence (looked up): T1 sequence (looked up) with R72S, S242R

Positions count from the first letter of the chain named. Names and notes keep the numbering of the source. No end group written: not given here. TMR = tetramethyl rhodamine dye

B1: TMR-E2F1^TD, peptide of the E2F1 transactivation domain (peptide)
peptide: {TMR}-GEGIRDLFDCDFGDLTPLD
notes: also called E2F^TD; source: synthetic peptide, bought: GenScript
Regarding B1, the Kd with Rb^P R621S is 21 nM; with Rb^P R763T, 37 nM; with Rb^P Y606C, 15 nM; with Rb^P L572I it was 37 nM; with Rb^P R451S, 26 nM.

B2: TMR-E7^LxCxE, LxCxE peptide of the E7 oncoprotein from HPV (peptide)
peptide: DLYCYEQLN
modifications: also: TMR label, position not given here
notes: source: synthetic peptide, bought: GenScript
Take B2: the Kd stood at 6 nM with Rb^P R621S; 21 nM with Rb^P R763T; 7 nM in the experiment with Rb^P Y606C; 4 nM with Rb^P L572I; 9 nM in the experiment with Rb^P R451S.
